B1: Coiled-coil alpha-helical rod protein 1 (Homo sapiens), Q8TD31 (parent)
chain: MFPPSGSTGLIPPSHFQARPLSTLPRMAPTWLSDIPLVQPPGHQDVSERRLDTQRPQVTMWERDVSSDRQEPGRRGRSWGLEGSQALSQQAEVIVRQLQELRRLEEEVRLLRETSLQQKMRLEAQAMELEALARAEKAGRAEAEGLRAALAGAEVVRKNLEEGSQRELEEVQRLHQEQLSSLTQAHEEALSSLTSKAEGLEKSLSSLETRRAGEAKELAEAQREAELLRKQLSKTQEDLEAQVTLVENLRKYVGEQVPSEVHSQTWELERQKLLETMQHLQEDRDSLHATAELLQVRVQSLTHILALQEEELTRKVQPSDSLEPEFTRKCQSLLNRWREKVFALMVQLKAQELEHSDSVKQLKGQVASLQEKVTSQSQEQAILQRSLQDKAAEVEVERMGAKGLQLELSRAQEARRRWQQQTASAEEQLRLVVNAVSSSQIWLETTMAKVEGAAAQLPSLNNRLSYAVRKVHTIRGLIARKLALAQLRQESCPLPPPVTDVSLELQQLREERNRLDAELQLSARLIQQEVGRAREQGEAERQQLSKVAQQLEQELQQTQESLASLGLQLEVARQGQQESTEEAASLRQELTQQQELYGQALQEKVAEVETRLREQLSDTERRLNEARREHAKAVVSLRQIQRRAAQEKERSQELRRLQEEARKEEGQRLARRLQELERDKNLMLATLQQEGLLSRYKQQRLLTVLPSLLDKKKSVVSSPRPPECSASAPVAAAVPTRESIKGSLSVLLDDLQDLSEAISKEEAVCQGDNLDRCSSSNPQMSS
partner: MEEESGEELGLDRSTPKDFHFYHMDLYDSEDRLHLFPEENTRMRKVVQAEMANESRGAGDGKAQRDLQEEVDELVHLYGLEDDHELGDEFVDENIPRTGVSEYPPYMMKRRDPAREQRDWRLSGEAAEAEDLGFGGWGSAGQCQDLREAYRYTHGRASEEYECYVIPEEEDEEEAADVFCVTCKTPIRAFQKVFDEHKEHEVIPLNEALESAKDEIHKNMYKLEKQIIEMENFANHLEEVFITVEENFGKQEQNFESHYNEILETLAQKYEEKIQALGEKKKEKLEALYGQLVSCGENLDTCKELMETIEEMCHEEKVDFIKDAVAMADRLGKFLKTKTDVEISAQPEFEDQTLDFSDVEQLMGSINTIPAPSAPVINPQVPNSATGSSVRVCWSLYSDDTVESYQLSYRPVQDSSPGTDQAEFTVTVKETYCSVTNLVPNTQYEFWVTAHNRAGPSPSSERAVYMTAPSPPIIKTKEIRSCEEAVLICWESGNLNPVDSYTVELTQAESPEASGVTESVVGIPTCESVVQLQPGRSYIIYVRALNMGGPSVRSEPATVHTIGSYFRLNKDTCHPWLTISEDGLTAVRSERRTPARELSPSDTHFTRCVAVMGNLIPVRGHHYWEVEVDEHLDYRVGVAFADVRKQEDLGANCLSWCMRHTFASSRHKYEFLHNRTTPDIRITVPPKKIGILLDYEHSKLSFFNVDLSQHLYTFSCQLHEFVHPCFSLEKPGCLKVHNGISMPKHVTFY
B2: Coiled-coil alpha-helical rod protein 1 (Homo sapiens), Q8TD31 (parent)
chain: B1 chain
partner: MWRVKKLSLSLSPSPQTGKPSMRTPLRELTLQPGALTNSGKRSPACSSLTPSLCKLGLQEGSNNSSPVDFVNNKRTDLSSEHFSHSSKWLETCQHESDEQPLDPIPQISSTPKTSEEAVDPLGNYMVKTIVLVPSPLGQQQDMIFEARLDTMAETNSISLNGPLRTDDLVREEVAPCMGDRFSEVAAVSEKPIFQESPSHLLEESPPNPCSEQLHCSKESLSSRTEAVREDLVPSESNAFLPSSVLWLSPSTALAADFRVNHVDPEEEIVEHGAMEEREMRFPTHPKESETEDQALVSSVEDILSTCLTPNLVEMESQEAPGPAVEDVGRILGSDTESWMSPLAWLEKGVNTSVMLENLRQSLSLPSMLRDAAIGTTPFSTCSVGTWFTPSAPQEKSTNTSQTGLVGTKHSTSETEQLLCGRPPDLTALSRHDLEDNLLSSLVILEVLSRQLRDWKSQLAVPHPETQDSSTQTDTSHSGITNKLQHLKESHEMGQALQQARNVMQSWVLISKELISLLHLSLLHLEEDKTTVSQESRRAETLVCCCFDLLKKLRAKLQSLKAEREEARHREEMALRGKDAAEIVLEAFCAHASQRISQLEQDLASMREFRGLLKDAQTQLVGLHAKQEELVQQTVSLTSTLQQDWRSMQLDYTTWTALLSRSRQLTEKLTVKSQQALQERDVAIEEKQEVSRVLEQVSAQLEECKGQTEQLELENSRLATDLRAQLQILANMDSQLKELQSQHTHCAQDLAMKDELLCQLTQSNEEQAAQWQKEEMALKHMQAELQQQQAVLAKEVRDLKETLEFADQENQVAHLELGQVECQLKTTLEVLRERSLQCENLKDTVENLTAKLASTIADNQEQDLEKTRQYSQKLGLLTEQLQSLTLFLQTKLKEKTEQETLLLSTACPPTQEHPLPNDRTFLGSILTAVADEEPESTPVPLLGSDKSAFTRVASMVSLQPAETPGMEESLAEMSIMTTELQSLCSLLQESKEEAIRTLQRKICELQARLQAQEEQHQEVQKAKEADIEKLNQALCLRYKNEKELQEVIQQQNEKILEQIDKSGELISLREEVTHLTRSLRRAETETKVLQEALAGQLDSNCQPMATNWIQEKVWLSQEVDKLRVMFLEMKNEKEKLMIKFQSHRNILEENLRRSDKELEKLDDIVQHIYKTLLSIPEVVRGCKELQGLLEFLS
B3: Coiled-coil alpha-helical rod protein 1 (Homo sapiens), Q8TD31 (parent)
chain: B1 chain
partner: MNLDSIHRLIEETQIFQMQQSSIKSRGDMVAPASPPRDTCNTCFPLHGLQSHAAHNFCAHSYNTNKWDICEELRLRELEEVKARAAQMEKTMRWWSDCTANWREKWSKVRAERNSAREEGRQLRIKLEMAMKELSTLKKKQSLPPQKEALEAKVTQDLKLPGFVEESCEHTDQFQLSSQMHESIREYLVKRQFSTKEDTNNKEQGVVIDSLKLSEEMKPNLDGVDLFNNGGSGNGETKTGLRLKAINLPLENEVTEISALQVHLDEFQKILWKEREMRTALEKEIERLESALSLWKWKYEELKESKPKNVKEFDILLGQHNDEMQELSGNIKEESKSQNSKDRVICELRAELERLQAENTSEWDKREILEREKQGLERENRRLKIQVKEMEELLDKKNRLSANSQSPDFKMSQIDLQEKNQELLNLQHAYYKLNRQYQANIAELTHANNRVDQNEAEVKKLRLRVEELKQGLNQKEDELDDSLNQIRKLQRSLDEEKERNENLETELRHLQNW
B4: Coiled-coil alpha-helical rod protein 1 (Homo sapiens), Q8TD31 (parent)
chain: B1 chain
partner: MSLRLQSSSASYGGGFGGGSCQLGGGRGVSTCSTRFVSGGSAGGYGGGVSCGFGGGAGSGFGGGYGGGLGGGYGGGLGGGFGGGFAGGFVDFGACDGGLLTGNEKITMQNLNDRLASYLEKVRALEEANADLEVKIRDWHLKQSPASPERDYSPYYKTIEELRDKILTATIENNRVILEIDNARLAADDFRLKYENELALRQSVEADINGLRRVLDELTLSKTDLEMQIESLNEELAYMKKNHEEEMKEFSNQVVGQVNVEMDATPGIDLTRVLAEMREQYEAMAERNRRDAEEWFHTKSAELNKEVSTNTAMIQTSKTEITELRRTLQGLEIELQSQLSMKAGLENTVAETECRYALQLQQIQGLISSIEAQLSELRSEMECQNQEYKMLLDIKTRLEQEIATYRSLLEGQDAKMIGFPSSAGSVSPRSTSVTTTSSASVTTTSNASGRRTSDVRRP
B5: Coiled-coil alpha-helical rod protein 1 (Homo sapiens), Q8TD31 (parent)
chain: B1 chain
partner: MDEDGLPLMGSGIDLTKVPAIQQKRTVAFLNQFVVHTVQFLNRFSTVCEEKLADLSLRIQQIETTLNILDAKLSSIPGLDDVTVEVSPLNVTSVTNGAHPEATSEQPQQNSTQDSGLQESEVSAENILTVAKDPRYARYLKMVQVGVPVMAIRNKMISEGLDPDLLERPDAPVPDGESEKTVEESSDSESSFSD

Variants of: B1
Details: with fsd2_human FSD2, A1L4K1

Row | Variant | effect of a mutation on the interaction
1 | W337R | with no effect

Variants of: B2
Details: with spag5_human SPAG5, Q96R06

Row | Variant | effect of a mutation on the interaction
2 | W337R | disrupting interaction strength

Variants of: B3
Details: with CCDC102B

Row | Variant | effect of a mutation on the interaction
3 | W337R | disrupting interaction strength

Variants of: B4
Details: with KRT13, P13646

Row | Variant | effect of a mutation on the interaction
4 | W337R | disrupting interaction strength

Variants of: B5
Details: with wasc3_human WASHC3, Q9Y3C0

Row | Variant | effect of a mutation on the interaction
5 | W337R | disrupting interaction strength
